One block for each binder: values may come before it.
How the values were obtained:
[1] = target: recombinant human VEGF165 (human, UniProt P15692 207-395); assay: cell-based or functional assay
[2] = target: recombinant human PDGF-BB (human, UniProt P01127 82-190); assay: cell-based or functional assay
recombinant human PDGF-BB, sequence (P01127 82-190 limits assumed): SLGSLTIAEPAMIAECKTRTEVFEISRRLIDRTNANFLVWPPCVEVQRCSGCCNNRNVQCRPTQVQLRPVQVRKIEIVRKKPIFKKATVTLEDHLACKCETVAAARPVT

recombinant human VEGF165, sequence (P15692 other isoform, or with tags, fused parts or gaps limits assumed): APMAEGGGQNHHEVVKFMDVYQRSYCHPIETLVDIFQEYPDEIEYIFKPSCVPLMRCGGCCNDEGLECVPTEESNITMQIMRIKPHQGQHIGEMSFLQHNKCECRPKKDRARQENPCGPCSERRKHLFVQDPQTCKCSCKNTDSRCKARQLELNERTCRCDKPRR

- Potency IC50 (nM) HMVEC-d hVEGF165 [1]: 0.372 nM
- Potency IC50 (nM) NIH-3T3 hPDGF-BB [2]: 0.039 nM
B1: CL-33675_GS_1E3.4 (bispecific antibody, human IgG1, kappa, L234A L235A)
heavy: EVTLRESGPALVKPTQTLTLTCTFSGFSLSTYGMGVGWIRQPPGKALEWLANIWWDDDKYYNPSLKNRLTISKDTSKNQVVLTMTNMDPVDTATYYCARIESSGPKYSFDYWGQGTMVTVSSGGGGSGGGGSEIQLVQSGSELKKPGASVKVSCKASGYPFTNSGMYWVKQAPGQGLEYMGWINTEAGKPTYADDFKGRFVFSLDTSVSTAYLQISSLKAEDTAVYFCARWGYISDNSYGWFDYWGQGTLVTVSSASTKGPSVFPLAPSSKSTSGGTAALGCLVKDYFPEPVTVSWNSGALTSGVHTFPAVLQSSGLYSLSSVVTVPSSSLGTQTYICNVNHKPSNTKVDKKVEPKSCDKTHTCPPCPAPEAAGGPSVFLFPPKPKDTLMISRTPEVTCVVVDVSHEDPEVKFNWYVDGVEVHNAKTKPREEQYNSTYRVVSVLTVLHQDWLNGKEYKCKVSNKALPAPIEKTISKAKGQPREPQVYTLPPSREEMTKNQVSLTCLVKGFYPSDIAVEWESNGQPENNYKTTPPVLDSDGSFFLYSKLTVDKSRWQQGNVFSCSVMHEALHNAYTQKSLSLSPGK
light: EIVLTQSPGTLSLSPGERATLSCRASSGSIWYSFVSWYQQKPGQAPRLLIYADDQRASGIPDRFSGSGSGTDFTLTISRLEPEDFAVYYCQSYGINIDVVFGGGTKVEIKGGSGGGGSGGATQLTQSPSSLSASVGDRVTISCRASEGVYSYMHWYQQKPGKQPKLLIYKASNLASGVPSRFSGSGSGTDFTLTISSLQPEDFATYFCHQNWNDPLTFGQGTKLEIKRTVAAPSVFIFPPSDEQLKSGTASVVCLLNNFYPREAKVQWKVDNALQSGNSQESVTEQDSKDSTYSLSSTLTLSKADYEKHKVYACEVTHQGLSSPVTKSFNRGEC

- Potency IC50 (nM) HMVEC-d hVEGF165 [1]: 0.082 nM
- Potency IC50 (nM) NIH-3T3 hPDGF-BB [2]: 0.037 nM
B2: CL-33675_GS_9E10.6 (bispecific antibody, human IgG1, kappa, L234A L235A)
heavy: EVTLRESGPALVKPTQTLTLTCTFSGFSLSTYGMGVGWIRQPPGKALEWLANIWWDDDKYYNPSLKNRLTISKDTSKNQVVLTMTNMDPVDTATYYCARIESSGPKYSFDYWGQGTMVTVSSGGGGSGGGGSEVQLVQSGAEVKKPGSSVKVSCKASGYTFTNYGMYWVRQAPGQGLEWMGWIDTETGRPTYADDFKGRFTFTADKSTSTAYMELSSLRSEDTAVYYCARWSGDTTGIRGPWFAYWGQGTLVTVSSASTKGPSVFPLAPSSKSTSGGTAALGCLVKDYFPEPVTVSWNSGALTSGVHTFPAVLQSSGLYSLSSVVTVPSSSLGTQTYICNVNHKPSNTKVDKKVEPKSCDKTHTCPPCPAPEAAGGPSVFLFPPKPKDTLMISRTPEVTCVVVDVSHEDPEVKFNWYVDGVEVHNAKTKPREEQYNSTYRVVSVLTVLHQDWLNGKEYKCKVSNKALPAPIEKTISKAKGQPREPQVYTLPPSREEMTKNQVSLTCLVKGFYPSDIAVEWESNGQPENNYKTTPPVLDSDGSFFLYSKLTVDKSRWQQGNVFSCSVMHEALHNAYTQKSLSLSPGK
light: EIVLTQSPGTLSLSPGERATLSCRASSGSIWYSFVSWYQQKPGQAPRLLIYADDQRASGIPDRFSGSGSGTDFTLTISRLEPEDFAVYYCQSYGINIDVVFGGGTKVEIKGGSGGGGSGGDIRMTQSPSSLSASVGDRVTITCLASEDIYSDLAWYQQKPGKSPKLLIYNANGLQNGVPSRFSGSGSGTDYTLTISSLQPEDVATYFCQQYNYFPGTFGQGTKLEIKRTVAAPSVFIFPPSDEQLKSGTASVVCLLNNFYPREAKVQWKVDNALQSGNSQESVTEQDSKDSTYSLSSTLTLSKADYEKHKVYACEVTHQGLSSPVTKSFNRGEC

From US20170015742A1 (published 2017)
